According to patent publication CN111499746A (YUROGEN BIOSYSTEMS LLC, dated 2020):

B1: 抗人IL-2蛋白兔单克隆抗体A (antibody, V domains shown)
VH: QSVAESGGRLVTPGTPLTLTCTASGFSLTTYAMSWVRQAPGKGLEWIAIIYIDGTTYYGSWAKGRFTISKTSTTVDLRIISPTTEDTATYFCAKWYVGEMDLWGPGTLVTVSS
VL: DIVMTQTPASVEAAVGGTVTINCQASQSVYRDNYLAWYQQKPGQRPKLLIYGTSTLASGVSSRFKGSGSGTQFTLTISDLECADAATYYCQSYVYSSTIDNAFGGGTEVVVKG
notes: Recombinant rabbit monoclonal antibody made in 293 cells and purified on protein A; also called 人IL-2兔单克隆抗体A
B2: 抗人IL-2蛋白兔单克隆抗体B (antibody, V domains shown)
VH: QSLEESGGRLVTPGGSLTLTCTVSGIDLSTGGVSWVRQAPGKGLEWIGIISRHTNTYYASWAKGRFTISKTSSTTVDVKITSPTIEDTATYYCARVSSGDGLYAFDPWGPGTLVTVSS
VL: AIEMTQTPSPVSAAVGGTVTINCQASEDIETYLAWYQQKPGQPPRLLIYSGSTIASGVSSHFKGSGSGTEFTLTISDLECADAATYYCQCTSYASGYWNQAFGGGTEVVVRG
notes: Recombinant rabbit monoclonal antibody made in 293 cells and purified on protein A; in the Biacore assay it is unlabelled; also called 人IL-2兔单克隆抗体B

Target: T1, 重组人IL-2蛋白 (human, UniProt P60568 21-153)
T1 construct: also called 人白介素-2; 重组表达人IL-2
Experiment: SPR, Biacore 3000; antibody at 333 nM, recombinant human IL-2 at 64, 32, 16, 8, 4 nM

T1 sequence (P60568 21-153 limits assumed): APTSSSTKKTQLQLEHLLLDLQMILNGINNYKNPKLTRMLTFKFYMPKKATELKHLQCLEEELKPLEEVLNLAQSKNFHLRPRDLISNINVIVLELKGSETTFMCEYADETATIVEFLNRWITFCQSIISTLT

| Binder | Kd [pM] |
| --- | --- |
| B1 | 899 |
| B2 | 293 |
